Measurements taken from patent publication US20080139477.

Molecular target: Flag-tagged collagen type III fusion protein (Flag-helix-C-tel-C-pro) expressed from YEpFlagCOLIII1.6 kb (UniProt P02461)
UniProt P02461, sequence (P02461 other isoform, or with tags, fused parts or gaps): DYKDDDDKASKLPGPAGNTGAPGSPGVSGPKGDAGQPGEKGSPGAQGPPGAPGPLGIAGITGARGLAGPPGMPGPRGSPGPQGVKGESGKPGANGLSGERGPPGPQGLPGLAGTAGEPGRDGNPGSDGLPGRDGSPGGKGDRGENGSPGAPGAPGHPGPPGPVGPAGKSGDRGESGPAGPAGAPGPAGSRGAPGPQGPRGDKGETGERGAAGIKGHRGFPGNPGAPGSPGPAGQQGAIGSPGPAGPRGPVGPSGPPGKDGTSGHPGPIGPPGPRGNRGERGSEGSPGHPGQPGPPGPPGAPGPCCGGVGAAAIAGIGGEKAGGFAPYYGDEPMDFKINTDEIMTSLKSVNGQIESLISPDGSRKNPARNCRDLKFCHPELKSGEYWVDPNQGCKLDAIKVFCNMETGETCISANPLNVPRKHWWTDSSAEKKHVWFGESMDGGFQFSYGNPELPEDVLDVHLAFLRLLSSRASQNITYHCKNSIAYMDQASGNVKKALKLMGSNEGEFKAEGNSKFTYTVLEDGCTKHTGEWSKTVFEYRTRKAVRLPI

For “prolyl-4-hydroxylase (P4H, α2β2) expressed from pYEUra3.2.12β#39α#5”, the “hydroxyproline by amino acid analysis of the 60 kDa band” value was “Amino acid analysis revealed the presence of hydroxyproline in this material from co-transformants ... after induction with 0.2% galactose but no hydroxyproline was detected with protein from control samples”.
